Experimental data taken from PMC13142116, “Development and structure-guided characterization of a novel ACE2-binding macrocyclic peptide” (Journal of Structural Biology: X, 2026).
Positions of bridges follow the written chain, without caps; N, C: chain ends. Non-standard residues stand in square brackets, D forms with d. Residues, ends and D or L forms follow the SMILES beside them. *: point of attachment. DOTA = O=C(O)CN1CCN(CC(=O)O)CCN(CC(=O)*)CCN(CC(=O)O)CC1

Assays:
[1] = format: physicochemical
Experimental: The distribution coefficient (logD value) of [^67Ga]Ga-DOTA-WJL-63 was determined using a shake-flask method as previously reported for DX600 radiopeptides ([Beyer et al., 2023]). The distribution coefficients were indicated as the average of n = 3 independent measurements ± standard deviation (SD), each performed with five replicates.

in vitro = in vitro ADME; conditions: mouse, plasma
Experimental: Additionally, the integrity of [^67Ga]Ga-DOTA-WJL-63 (20 MBq/nmol) in mouse and human blood plasma (Rockland Immunochemicals, Inc. PA, USA and Blood donation SRK Aargau-Solothurn, Switzerland) was determined using thin layer chromatography (TLC). Reversed phase C-18 plates (TLC Silica gel 60 RP-18; Merck) were used as the stationary phase and a mixture of citrate buffer (pH 5.5; 0.1 M) and acetonitrile (7:3; v/v) as the mobile phase. Under these conditions, uncoordinated gallium-67 migrated with the front while the radiopeptide and potential larger fragments migrated to the center of the plate. […] The quantification of the signals was carried out using the OptiQuant software (version 5.0, Bright Instrument Co Ltd., PerkinElmer). The obtained chromatograms were analyzed by determination of the peak area of the radiolabeled peptide, the released gallium-67 as well as degradation products of unknown structure. The quantity of the intact product was expressed as the percentage of the sum of integrated peak areas of the entire chromatogram and set in relation to the value determined at the respective timepoints of the radiopeptide diluted in saline which was set as 100% to correct for TLC artefacts. The results were then expressed as average ± SD from n = 3 independent experiments.

**Q.** Which logD value [1] does the source give for `CC[C@H](C)[C@@H]1NC(=O)[C@H](CCC(N)=O)NC(=O)[C@H]([C@@H](C)O)NC(=O)[C@H](CO)NC(=O)[C@@H](Cc2ccc(O)cc2)NC(=O)CSC[C@@H](C(=O)NCC(=O)N[C@@H](CO)C(=O)NCC(=O)N[C@@H](CO)C(=O)NCC(=O)N[C@@H](CO)C(=O)N[C@@H](CCCCNC(=O)CN2CCN(CC(=O)O)CCN(CC(=O)O)CCN(CC(=O)O)CC2)C(N)=O)NC(=O)CNC(=O)[C@H](CCCNC(=N)N)NC(=O)[C@H](CO)NC(=O)[C@H](CC(=O)O)NC(=O)[C@H](CCCNC(=N)N)NC(=O)[C@H]([C@@H](C)O)NC(=O)[C@H](Cc2ccccc2)NC(=O)CNC(=O)[C@H](CCCNC(=N)N)NC(=O)[C@H](CO)NC1=O` [[^67Ga]Ga-DOTA-WJL-63, metal not drawn] ({CH2CO}-[dY]STQISRGFTRDSRGCGSGSGSK(DOTA)-NH2; thioether N-16) here?
**A.** − 4.4 ± 0.1

**Q.** What about the remaining at 1 h, 10 MBq/200 µL (in vitro) of the same compound?
**A.** 91%

**Q.** And the remaining at 3 h, 10 MBq/200 µL (in vitro)?
**A.** 69%
